From the DeepSol protein solubility set

assay: soluble on expression in E. coli; label from the status in PepcDB or PDB records

Sequence | soluble on expression in E. coli
MSLAIQPLAYRMRPKALDEIVGQTHLVGKDKIIYRMVKAKQLSSMILYGPPGIGKTSIASAIAGSTKYAFRTLNAVTNNKKDMEVVAAEAKMSGTVILLLDEVHRLDKAKQDFLLPLLESGAIILIGATTSNPYIAINPAIRSRTQIFELKPLTVEDIMITMDRALSDKERGLGNYDVEIDEVAKKHFATASNGDVRSALNALELAVISSEPNEDGVIHITLDVAEECLQKKSLAHDKDGDAHYDVLSAFQKSVRGSDVNAALHYMGRLIEAGDLVSISRRMLVMAYEDIGLASPQAGAHTLAAIQTAEKVGFPEARIPLANAVIELCLSPKSNSAIMAIDAALADIRQGKSGEVPDHLRDGHYSGAEKLGRAIDYKYPHNYDNAWVDQQYLPDRLKNKLYYAPKFTSKFEQTIAGVYQKINENKAKKEGHHHHHH | soluble
MGSDKIHHHHHHMATFTRKAIMQTFLHILKNKPLDRITVKDICEQCEINRNTFYYYFKDIYDVLEAIFEDEVRLVMDEAKEGVTFHDAYARVAALILNNREAIMHIYASENGRVLRTYLDAVVTQVVRRFVLEKAEGYSLDDSDIAFITAFYSNGIVGSTIKWIERGSMMSRLPENITANGVGLSKSQYNRDIVKRIGDSFDATIYDMIECCL | not soluble
MIIQNEFNLYPSNMLPERFCYPEKYVRISNDTSLIPYIQPHNFHWWFENYGTEGAEVAYIFRNSILPDLNLIPFASNGEWEAYFDGNDVTGNSRVIVINLDNIENHEFFNSFEDWLELAIKDTW | not soluble
GPGSMDSINSVTFEWVRAGPAYTLDGPHVYHSGCLGSYQPAIGGLEMPAGHGKYFYEIQTSDTRCKVGVCTEDAFLSNVNLGDVELHAAQPSSSLNSRLSEANCCLFNCLTCAVEVNGVEVRSLWRLLVPSAGARFGFLVNTDEGAVQLYVNGEYQGLIADTATGFKGKKLRPCIALDAPPTCGAGAEANKSSASVVPPRKIIASTA | not soluble
MFSIFMRIPDTAQVDAVFSGAYASIEQGLCYDEVNDWENTLAMYEKGLNLIVEGEKMKNARKSEMWKMLQESKSSVQHRINVLKKEGPKQPTPKKIKEAEESVENEKEAIRMQLDSFGSQEADLIYFLPEGVQLFTIDGEKTTAPTAPTSLQILRFPQPTDGGASSDTLAFMQVGPWAYPLMGAKTPVLRNEFGAYLVANPTPENPNMTVAILLSSDIERRLIEELHIVLREFTDFKEQAEPSTELSKEEKNRISTTISNFLIKGGQKIAWGVETTTVRVISRVEDNGEQYRTTLIATDKPMQVSPVIKGSVVYMHKGTKTVAKCTRYLLDKIGDMGVSMGKKLADSAQRRFGDGKSGGLVSGTIEILGGGITGVATVWMSLEDGSRHLCRSIANQTVQNVKLKYGDDASDTTHHALFAAGHGTLAAAQLWDLGPRSVAGRMARKAGIQMVSDLHHSRKGSRLDQEVPALELKKAV | not soluble
AIAEAAVDWYDFWNYYYLGKYQAANDVCTTLLEPNQWPRSVLLAVIRLRLALRDLEGIRALRNLVNDTWTSSVIHELIETLQKNVPPIDDGERLRSVVFGDGSALDAVDEAGRLLAALALQRAGLYLDALETLPLSRCENDAESRACRICLWLHLNRLDRAQLEQQALEHWFERQLADGDQRAVGTLVQLSRATLAVASNDAEDVAIEAALRSCRDLAERYGPSTKLLNLTYLCLVRLGRTEASESTLQQAMNLDAQDPDTMANTAASAAKTSMMMMAFPEAATATQRPIEYLRKYAPWHPWIRAQDDFERKLRGLAT | soluble
MGSDKIHHHHHHMINQVYRLVSERQFEEANIEEALTEDVVVVRPTYLSICAADQRYYTGSRGKEMLSKKLPMALIHEGVGQVTYDATGEFEIGTKVVMIPNTPTEDDPVIAENYRRSSLFRSSGYDGLMQENVFMRRDRVVRLPENMDMEVAAYSELISVAFHAITRFKQKANANQSVFGVWGDGNLGFITCLLLKTIYPESKVIIFGKTQYKLDFFSFVDEAHLVDEIPEGLVIDNAFECAGGKGSQYAVEQIIDLIKPEGTISLLGVSENPIEFNSRMVLEKGLTVFGSSRSGKEDFQNTVNFLSENERAVEYLSSLIGQRKVVRNLQDIIEAFETDLRNPFGKTVMEWKV | not soluble
MSTNITFHASALTRSERTELRNQRGLTIWLTGLSASGKSTLAVELEHQLVRDRRVHAYRLDGDNIRFGLNKDLGFSEADRNENIRRIAEVAKLFADSNSIAITSFISPYRKDRDTARQLHEVATPGEETGLPFVEVYVDVPVEVAEQRDPKGLYKKAREGVIKEFTGISAPYEAPANPEVHVKNYELPVQDAVKQIIDYLDTKGYLPAKKE | soluble
MSLKARRGLSASDLINLNADRLQCLLSGHPKFVFNKGRRGWGKEALERYAPEYANTFRLHWLAVKREHMIWRCDNEMDIHQLLTAAMDPQEFARFSQVWQENGLDHNWLPLPVHPWQWQEKIATDFIADFGEGRMVSLGEFGDQWLAQQSLRTLTNASRRGGLDIKLPLTIYNTSCYRGIPGRYIAAGPLASRWLQQVFATDATLVQSGAVILGEPAAGYVSHEGYAALARAPYRYQEMLGVIWRENPCRWLKPDESPFLMATLMEWDENNQPLAGAYIDRSGLDAETWLTQLFRVVVVPLYHLLCRYGVALIAHGQNITLAMKEGVPQRVLLKDFQGDMRLVKEEFPEMDSLPQEVRDVTSRLSADYLIHDLQTGHFVTVLRFISPLMVRLGVPERRFYQLLAAVLSDYMKKHPQMSERFALFSLFRPQIIRVVLNPVKLTWPDLDGGSRMLPNYLEDLQNPLWLVTQEYESEGHHHHHH | soluble
MRRQRRSITDIICENCNYLPTKRSRNKRKPIPKESDVKTFNYTAHLWDIRWLRERARKTR | not soluble
MSLVRQEPLRPDQPLEMGFEYRSAVRTVRTDSTGLIIPAPTARFSLNESPWRSCKGGMMAGMSSLVRIVNAGVPGSQDRVDVVLRDGVVASVGPAGTVSASDGTMQTKAHTTSLAYATNAIASGGVSIPTSASAPADETTIDADGLWVIPGLWDCHTHFTQWVKTLGRLDLINARSAAEAMDMLRRHLDERRAADTLDPDAFVVGMRFRHSLWADDEQPTLAAIDAVTGEQPVALSSADMHCGWVNSAAARRLGVHVDESGLVGELEWFNAYTAFDKAPGAAEETDRLLREAEQDAASKGVVGIRDYEMAENIDTWINRFAAGINGLRVDAGVYPERLRAAIDAGWHTGKELPGSAGLGHVGAMKLISDGSLNTRSAYCSTPYSGIEPLTYGTLSYTPQQIEDYMRLATEHGFDIACHAIGDEANTIALNAVAATHAHGSIEHAQMLKPVDIPRFAELGLTASIQPQHAMDDRDVITRFWANPAGIPYPFRALHDAGTTLRMGSDAPVAPLDPWLAISAAVLGTESSDREPFQPEQCLDVHTSLAASTATGRDRLASGDPADVVLLDADPYAADTPEAMRAMPQHVVMTLLCGERTYEGHHHHHH | not soluble
MLRHLGQLSVAHRGSGLHDAYVVNPAQQLDPELAPPPVVYVLETSYVALLLKNPEDVGYQLARRHDYCFALAPHLCILYSRHRVCERVKHHHSHPPPATCSS | soluble
MGSDKIHHHHHHMNILVTGGAGFIGSHVVDKLIENGYGVIVVDNLSSGKVENLNRNALFYEQSIEDEEMMERIFSLHRPEYVFHLAAQASVAISVREPARDAKTNIIGSLVLLEKSIKYGVKKFIFSSTGGAIYGENVKVFPTPETEIPHPISPYGIAKYSTEMYLEFFAREYGLKYTVLRYANVYGPRQDPYGEAGVVAIFTERMLRGEEVHIFGDGEYVRDYVYVDDVVRANLLAMEKGDNEVFNIGTGRGTTVNQLFKLLKEITGYDKEPVYKPPRKGDVRKSILDYTKAKEKLGWEPKVSLEEGLKLTVEYFRKTLE | not soluble
MKKWFLLLIASLVGYIAYEDLTVGTLPASSKTPVVRENIGIPAYKVIKIKAGDTLLSIAEREQQGPLPVSIETLIRDFEKLNPEAKADALQIGKTYKIPVYEK | not soluble
IDPFTADAGHTEFTDEVYQNESRYPGGDWKPAEDTYTDANGDKAASPSELTCPPGWEWEDDAWSYDINRAVDEKGWEYGITIPPDHKPKSWVAAEKMYHTHRRRRLVRKRKKDLTQTASSTAR | soluble
MGSDKIHHHHHHMLSLKNINFKGVKGINELELTLSDNPINVLIGTNGIGKTKALEALYTLLIFTNTAFQKYAMNGKDVVFNECLIANEQVIRIDNTESYTYIKQFFTNNKLSHSYPVIFIAAQNRGKIKSENSNSISPLGNADTRAYNYFRHIIRSMENDFSSLNMDMPIEEWIIQRANSSTSYQDEEDNRELELISLLKILNKIDERISCDKSTLKISGDNQVSILVDGKKTKLSALSSGFASLIKIIQSIIAGYSFFTNSRQIENVEGYVLIDEIESHLHLEWQTKILPILSEVFPYTRFIITTHSSLILSQLYTGSASRLVHEGSKIINEDIPNASNFTLIDLLQEAFDIDLNQIKISSTTAKHQERVKKAILDLLGA | not soluble
MSLDIKRVLKAAPTKMRSREPLQQLWTPWGERIEHEWLSARAGNKAFNPAEEGERTLDEGRTPILGEHPRPTMVRDNCTMLNGWWDYAIVSIPEDETAPKWRKTAAMLTRDEAVRAVKETAIPQTFDGKILVPFSPESALSGVHQTIYPDNLLWYRTVVHPVTLGGEETVRQIGDANRLILHFEAVDYVCACYVNGQLAGTHVGGYLPFDVDISAFIDPDDAFEIALCVYDPNDSGTQLRGKQKIEREGIWYTAQSGIWQSVWLEIVPEAYLRTLTLKGASDGKLFVRAEIGGDKPNAKLHIVVTDPADGTVVADETLPAGVRKVRAEIATAAEHLWSPADPYLYDVRAELRYGSAKPAETAGDAAVVQSQPMDVVSSYCAFRSVEIKPDTKGVARFHLNGKPLFVKGVLDQGYWPDGLMTAPDDEALTHDITAMKNAGFNMLRKHIKIESARWYYHCDRLGMLVWQDAVSGGGTDGEYNAWTTNRKPTLIRSTWNKFRDDTAKHFTALGADDPIYRRDWSRTCDAMVHMLGGHPSIVTWTLFNEGWGQFDACDATERIHALDPTRPIDATSGWYDQHCGDYHSVHNYFRPLEIYPDKGPLRGYVAEFEKKHRRRRRAAHYVVLPVARHGVRAFVISEFGGLAQLVPEHAAVSRAYGYGEYDSIDDWRAAVRSVLASAAALESRGLAGYVYTQVSDVEEELNGLLTYDRRVDKFAEEGHHHHHH | soluble
MPGIAIIGAQWGDEGKGKVVDVLAREADYVIRYQGGANAGHTVVAEGKVFKLNLLPSGVIHPHAVNVLGDGMVIDPFRFQEEVEGLRKEGFDPKILVSERAHLVLPHHKHVESRHNFVGTTGRGIGPAYSDRARRVGIRAGDLLDEATLRERVRRLLAEKPNSTREAGWDTEEKALADLHRMREILSPYIADTGSLLREAWRKGKRLLFEGAQATLLDLNYGTYPYVTSSHPTVGGILVGTGLSHKAITKVYGVAKAYTTRVGEGPFPTELQGELAHHLREKGGEYGTTTGRPRRVGWLDLVALRYACEVNGFDGLVLTKLDVLSGLEKVKVAVEYLDGARPGEASPEAVRYLELPGWGDLSHVKRREDLPANLLRYLELVEEHTGVPVVLFSTSPRREDTFGAVSWV | soluble
MGSDKIHHHHHHACDGKVYKKGDKIMFGVPKVSGYLFVRTFTKDGKISTMPKENLASQEAVIVDIPDYDKKLFEGMGVYSEVETHPLVVVELDGRRLCININDALSQGNIVSEYFKSEVEGMVDLTSDLLFVYALKLNNVTVDDDVIVRYMAHCDKNLVEKNQADPFTMADLKKEYAAKLEKALGDVDFSKVFRIESQSEMLQYDMDKQIFPLKGLWCPQIKTDQPDALAKIGFCKWDDCVFRFVNIPEFMNVPCETARAKGFYDMRKVGKVPTYNTPLATSYTYIRFLDKKVQLPEKKNKVYHNGDIKSMSLADLYGKMAIEAQIIKMDVYHLPFLKISDFELFYNYLGSIEVK | not soluble
